Settings in all cases: tags: GST fusion; label: radiolabeled
Data set [1] concerns the target T1, FOXP1-ES forkhead domain (exon 18b) (Homo sapiens).
T1 chain: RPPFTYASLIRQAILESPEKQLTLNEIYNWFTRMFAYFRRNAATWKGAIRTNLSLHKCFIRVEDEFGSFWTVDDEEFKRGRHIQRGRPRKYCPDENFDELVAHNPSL
The data set can be described thus: EMSA; preferentially bound by FOXP1-ES. The method, then: (§1) FIG. 2(C) is an Electrophoresis Mobility Shift Assay (EMSA) validating PBM-derived consensus DNA binding sites for FOXP1 and FOXP1-ES. Radiolabeled dsDNA probes containing two copies of GTAAACAA (top left panel), AATAAACA (top middle panel) or CGATACAA (top right panel), or two copies of mutant versions of these sequences GGACACAA (bottom left panel), AATGGACA (bottom middle panel) or CGCGACAT (bottom right panel) were incubated in the absence (lanes 1, 9 and 19) or in the presence of increasing amounts (0.2 to 3.2 pmol) of recombinant GST-FOXP1 or GST-FOXP1-ES proteins. Positions mutated in the probe sequences are underlined. Shifted protein-dsDNA complexes are indicated by arrows and free dsDNA probe is indicated by an asterisk.
A general note: Mobility shift assays separate free from complexed probe on a gel.

Data set [2] addresses T1, FOXP1-ES forkhead domain (exon 18b). The data set can be described thus: EMSA; no appreciable shift. The procedure: as §1
In data set [3] the target is T2, FOXP1 forkhead domain (canonical, exon 18) (Homo sapiens, UniProt Q9H334 SEQ:465-555).
T2 sequence: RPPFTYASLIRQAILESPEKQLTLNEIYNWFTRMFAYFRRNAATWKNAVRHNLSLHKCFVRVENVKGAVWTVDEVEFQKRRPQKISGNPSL
The data set can be described thus: EMSA; no appreciable shift. The procedure: as §1

In data set [4] the target is T1, FOXP1-ES forkhead domain (exon 18b). Nature of the data set: EMSA; no appreciable shift. The method, then: (§2) Radiolabeled dsDNA probes containing two copies of each 8-mer (top panels), or two copies of mutant versions of these sequences CCACTCAA, ATGCAGGA, CTATCCAA and AACCCCAA (bottom panels) were incubated in the absence (lanes 1, 10, 19 and 28) or in the presence of increasing amounts (0.2 to 3.2 pmol) of recombinant GST-FOXP1 or GST-FOXP1-ES proteins. Positions mutated in the probe sequences are underlined. Shifted protein-dsDNA complexes are indicated by arrows and free dsDNA probe is indicated by an asterisk.

Data set [5] has as its target T2, FOXP1 forkhead domain (canonical, exon …). Nature of the data set: EMSA; no appreciable shift. The procedure: as §2
This is another data set of the same source.

The results in this text go back to patent publication US20140134737, “Alternative Splicing Modulators and Splice Variants and Their Use in the Control and Detection of Pluripotency and Differentiation” (Governing Council of the University of Toronto, published 2014).

B1: AATAAACA x2 probe (dsDNA)
DNA 1: AATAAACACCAATAAACA
DNA 2: TGTTTATTGGTGTTTATT
As for B1, in data set [1], the binding result is “binds”.

B2: AATGGACA x2 mutant (dsDNA)
DNA 1: AATGGACACCAATGGACA
DNA 2: TGTCCATTGGTGTCCATT
Consider B2, for which the binding result in data set [2] and in data set [3] was “no binding” each time.

B3: CTATCCAA x2 mutant (dsDNA)
DNA 1: CTATCCAACCCTATCCAA
DNA 2: TTGGATAGGGTTGGATAG
Regarding B3, the binding result in data set [4] and in data set [5] was “no binding” each time.

B4: CCACTCAA x2 mutant (dsDNA)
DNA 1: CCACTCAACCCCACTCAA
DNA 2: TTGAGTGGGGTTGAGTGG
For B4, the binding result in data set [4] and in data set [5] was “no binding” each time.

B5: AACCCCAA x2 mutant (dsDNA)
DNA 1: AACCCCAACCAACCCCAA
DNA 2: TTGGGGTTGGTTGGGGTT
In the case of B5, the binding result in data set [4] and in data set [5] was “no binding” in each case.

B6: ATGCAGGA x2 mutant (dsDNA)
DNA 1: ATGCAGGACCATGCAGGA
DNA 2: TCCTGCATGGTCCTGCAT
With B6, the binding result in data set [4] and in data set [5] was “no binding” each time.

B7: GGACACAA x2 mutant (dsDNA)
DNA 1: GGACACAACCGGACACAA
DNA 2: TTGTGTCCGGTTGTGTCC
Consider B7, for which the binding result in data set [2] and in data set [3] was “no binding” in each case.

B8: CGCGACAT x2 mutant (dsDNA)
DNA 1: CGCGACATCCCGCGACAT
DNA 2: ATGTCGCGGGATGTCGCG
On to B8, for which the binding result in data set [2] and in data set [3] was “no binding” each time.
